We go through 36 sequences from the supplement of paper PMC10567573.

± gives the standard deviation.

This series in a line: protein stability index of a GFP-peptide fusion (GPS, HEK-293T) (PSI 1-6); higher = more stable. As to conditions: c terminus: a fixed tail appended.
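Note: 24-mer peptide tiles fused after GFP, lentivirally expressed, FACS-sorted into six equal bins by GFP/DsRed ratio, decoded by Illumina sequencing, PSI is the read-weighted mean bin number.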

As to GLRQRASNKVQDSAPVETPRGKPP [HMOX1], the protein stability index by setting is: (treatment: DMSO) 5 ± 0.25; (treatment: MLN4924 1 uM, 8 h) 4.83 ± 0.2.
The like results for GLSPYSDYEFRVVAVNNIGRGPPS [PTPRD] were, in that order, 2.41 ± 0.35 and 3.14 ± 0.033.
For GLTFQGLLPLTELSVCPLEGSREH [PLEKHN1], the protein stability index was 3.57 ± 0.35 (treatment: DMSO) and 3.62 ± 0.35 (treatment: MLN4924 1 uM, 8 h).
For GPGSKRDAHFCAVCSDYASGYHYG [ESR2], the protein stability index was determined as 2.42 ± 0.2 (treatment: DMSO) and 2.65 ± 0.32 (treatment: MLN4924 1 uM, 8 h).
In the same order, the values of GPMEEVERQVLPDPEVLEAVGDRQ [PBXIP1] are 5.62 ± 0.25 and 5.59 ± 0.21.
The like results for GPPAPVGPPHARISQHGDPLLSNT [EMID1] were, in that order, 4.37 ± 0.24 and 4.55 ± 0.72.
On to GPSNTSHSSSRDSHLSNGLDPVAE [C2CD2L], for which the protein stability index amounted to 5.337 ± 0.041 (treatment: DMSO) and 5.23 ± 0.089 (treatment: MLN4924 1 uM, 8 h).
Regarding GQYRANEGTSSIVMEIQKQIEKKE [TAF7L], the protein stability index runs as follows: (treatment: DMSO) 5.06 ± 0.35; (treatment: MLN4924 1 uM, 8 h) 5.16 ± 0.46.
For the sequence GRATKRRKKSGDLKKAKVQVERMR [FBXO34], the protein stability index by setting is: (treatment: DMSO) 4.25 ± 0.072; (treatment: MLN4924 1 uM, 8 h) 4.26 ± 0.65.
In the same order, the values of GRAVDQDKVLRFAQQIRLHHFNSS [MYORG] are 2.51 ± 0.27 and 2.75 ± 0.34.
Consider GRGGEPRAYFMSDTREEKRFLGEG [CHGB], for which the protein stability index reads like this: (treatment: DMSO) 4.23 ± 0.2; (treatment: MLN4924 1 uM, 8 h) 4.44 ± 0.27.
As to GRLPRIPQVLSQEFTELLKVMIHP [WEE1], the protein stability index reads like this: (treatment: DMSO) 2.48 ± 0.53; (treatment: MLN4924 1 uM, 8 h) 2.47 ± 0.45.
On to GSGQRVPALEEAPDSHQKRPQHSH [ELOA2], for which the protein stability index is, setting by setting: (treatment: DMSO) 5.26 ± 0.17; (treatment: MLN4924 1 uM, 8 h) 5.29 ± 0.33.
In the same order, the values of GSKGEKDLGASSLHVNGESLEMDS [EHMT1] are 5.28 ± 0.26 and 5.39 ± 0.27.
As to GSSGPAGLTLGRSFSNYRPFEPQA [SEPHS2], the protein stability index reads like this: (treatment: DMSO) 3.22 ± 0.12; (treatment: MLN4924 1 uM, 8 h) 3.28 ± 0.16.
The like results for GSSNVGINRWRFLLQCLEDLDANL [CRY1] were, in that order, 2.48 ± 0.52 and 2.4 ± 0.13.
Turning to GTLNREDLSRLVNCLTGEGEDTRL [CIB1], the protein stability index is, setting by setting: (treatment: DMSO) 4.25 ± 0.32; (treatment: MLN4924 1 uM, 8 h) 4.48 ± 0.31.
In turn, GTSTWQFNFKFNLTEDMYAQDSIE [CNOT7] showed a protein stability index (treatment: DMSO) of 2.4 ± 0.2 and a protein stability index (treatment: MLN4924 1 uM, 8 h) of 2.59 ± 0.28.
In the case of GVGAVPGPGTPTGPSLPSKRESPG [ZBTB22], the protein stability index was 5.41 ± 0.29 (treatment: DMSO) and 5.21 ± 0.14 (treatment: MLN4924 1 uM, 8 h).
For GVGGAERLVLDAALALQARGCSVK [ALG2], the protein stability index came to 3.22 ± 0.24 (treatment: DMSO) and 3.28 ± 0.48 (treatment: MLN4924 1 uM, 8 h).
The like results for GVGKAIEEELQEIASEPTNKHLFY [MATN2] were, in that order, 4.75 ± 0.37 and 4.46 ± 0.11.
The like results for GVSRGVGFIRFDKRIEAEEAIKGL [ELAVL3] were, in that order, 3.572 ± 0.035 and 4.05 ± 0.57.
In the same order, the values of GYSTPADIWSTACMAFELATGDYL [SRPK2] are 2.1 ± 0.33 and 2.54 ± 0.5.
GYVANSSNCISGVCSVRGGEGRSR [KRT71]: the protein stability index amounted to 3.47 ± 0.2 (treatment: DMSO) and 3.73 ± 0.43 (treatment: MLN4924 1 uM, 8 h).
For the sequence HAAASNGQINVVKHLLNLGVEIDE [ANKRD44], the protein stability index runs as follows: (treatment: DMSO) 4.06 ± 0.35; (treatment: MLN4924 1 uM, 8 h) 4.16 ± 0.25.
In the same order, the values of HCAAVTPAGCMYIHGGVVNIHENK [KLHDC10] are 2.86 ± 0.098 and 3.12 ± 0.49.
Consider HFKKQTIYRFLKLHPRGKNNFSPL [FEM1C], for which the protein stability index was 2.71 ± 0.32 (treatment: DMSO) and 1.96 ± 0.14 (treatment: MLN4924 1 uM, 8 h).
The like results for HGVDLSALRGAAVDEYFRQPVVDT [CARM1] were, in that order, 4.13 ± 0.41 and 4.29 ± 0.56.
The like results for HIDSSCSSFIKTEPSSPASLTDSV [ESRRG] were, in that order, 4.29 ± 0.18 and 4.23 ± 0.2.
The like results for HIENGPFSLEQQLDDEDDDEEDCP [SRPK2] were, in that order, 5.44 ± 0.4 and 5.46 ± 0.2.
On to HLAPSEAKAADSPTRNDLESGLGH, for which the protein stability index turned out to be 5.14 ± 0.34 (treatment: DMSO) and 5.37 ± 0.058 (treatment: MLN4924 1 uM, 8 h).
Regarding HLMPFRQHCRQSLASRIRSNKKML [KLHL14], the protein stability index worked out at 2.39 ± 0.11 (treatment: DMSO) and 2.34 ± 0.1 (treatment: MLN4924 1 uM, 8 h).
Turning to HLPADSEVTLEANPTSAPGSRLAE [RSAD1], the protein stability index is 5.49 ± 0.077 (treatment: DMSO) and 5.39 ± 0.24 (treatment: MLN4924 1 uM, 8 h).
Turning to HLRPELRSQMQGPRTRARLGANEV [KLHL12], the protein stability index by setting is: (treatment: DMSO) 4.23 ± 0.043; (treatment: MLN4924 1 uM, 8 h) 4.22 ± 0.44.
In the same order, the values of HMLNQVESKVKDILSKVQKNHVGK [FAM98B] are 2.55 ± 0.51 and 2.36 ± 0.32.
The like results for HPKPKLVRVLESLLVSLVTTVVVF [CLCN6] were, in that order, 3.49 ± 0.47 and 3.56 ± 0.25.
